From publication PMC4709722, “Flavone synthases from Lonicera japonica and L. macranthoides reveal differential flavone accumulation” (Scientific Reports, 2016) come the findings set out here.

Common to all, as to experiment: cells, lysate or membranes
Substrate in series [1]: O=C1C[C@@H](c2ccc(O)c(O)c2)Oc2cc(O)cc(O)c21
As to conditions: NADPH, potassium phosphate, product luteolin.

Substrate in series [2]: O=C1C[C@@H](c2ccc(O)cc2)Oc2cc(O)cc(O)c21
The following applies: apparent Km; NADPH, potassium phosphate, optimized conditions (about pH 7.5, 37 °C); product apigenin; pH 7.5; 37.0 °C.

Substrate in series [3]: O=C1C[C@@H](c2ccc(O)cc2)Oc2cc(O)ccc21
The following applies: apparent Km; NADPH, potassium phosphate, optimized conditions (about pH 7.5, 37 °C); product 7,4'-dihydroxyflavone; pH 7.5; 37.0 °C.

Where [4] appears, read: apparent Km, optimized conditions (about pH 7.5, 37 °C), pH 7.5, 37.0 °C.

B1: LjFNSII-1.1 (Lonicera japonica; S122A) (protein)
chain: MWIFDLTISFTTLLFLIFTTALLLLLKVFKKNHKLRPPPSPFTLPIIGHLHLLGPLIHQSFHRLSTLYGPLIQLKIGYIPCVVASTPELAKEFLKTHELAFSSRKHSAAIKLLTYDVSFAFAPYGPYWKFIKKTCTFELLGTRNMNHFLPIRTNEIRRFLQVMLEKAKASEGVNVTEELIKLTNNVISQMMFSTRSSGTEGEAEEMRTLVREVTQIFGEFNVSDFIKLCKNIDIGGFKKRSKDIQKRYDALLEKIISERESERARRGKNRETLGEEGGKDFLDMMLDTMEDGKCEVEITRDHIKALVLDFLTAATDTTAIAVEWTLAELISNPEVFDKAREEIDKVVGKHRLVTELDTPNLPYIHAIIKESFRLHPPIPLLIRKSVQDCTVGGYHISANTILFVNIWAIGRNPKYWESPMKFWPERFLESNGPGPVGSMDIKGHHYELLPFGSGRRGCPGMALAMQELPVVLAAMIQCFNWKPVTLDGEELDMSERPGLTAPRAHDLVCVPSARINSFDNF
As a reminder, the kcat is the maximal rate divided by the concentration of active sites. As to B1, in series [1] (optimized conditions), the Km was 10.53 ± 1.18 µM and the turnover number (kcat) was found to be 6.08 ± 0.5 s⁻¹.

B2: LjFNSII-2.1 (Lonicera japonica) (protein)
chain: MWIFDLTISFTTLLFLIFTTALLLLLKVFKKNHKLRPPPSPFTLPIIGHLHLLGPLIHQSFHRLSTLYGPLIQLKIGYIPCVVASTPELAKEFLKTHELAFSSRKHSAAIKLLTYDVSFAFSPYGPYWKFIKKTCTFELLGTRNMNHFLPIRTNEIRRFLQVMLEKAKASEGVNVTEELIKLTNNVISQMMFSTRSSGTEGEAEEMRTLVREVTQIFGEFNVSDFIKLCKNIDIGGFKKRSEDIQKRYDALLEKIISERESERARRGKNRETLGEEGGKDFLDMMLDTMEDGKCEVEITRDHIKALVLDFLTAATDTTAIAVEWTLAELISNPEVFDKAREEIDKVVGKHRLVTELDTPNLPYIHAIIKESFRLHPPIPLLIRKSVQDCTVGGYHISANTILFVNIWAIGRNPKYWESPMKFWPERFLESNGPGPVGSMDIKGHHYELLPFGSGRRGCPGMALAMQELPVVLAAMIQCFNWKPVTLDGEELDMSERPGLTAPRAHDLVCVPSARINSFDNF
In general, Vmax refers to the top rate of the reaction or transport when substrate is in excess. As a reminder, the kcat/Km is the second-order rate constant that governs catalysis at low substrate concentration. Regarding B2, in series [2], the Km is listed as 1.63 (0.06) μM, the Vmax was 0.0288 µM/min, the kcat was 0.28 s⁻¹ and the specificity constant (kcat/Km) is 170000 M⁻¹ s⁻¹. In series [1] (setting [4]), the Km is reported as 2.05 (0.04) μM, the maximal velocity (Vmax) is 0.0984 µM/min, the catalytic constant (kcat) is 0.94 s⁻¹ and the catalytic efficiency (kcat/Km) amounted to 460000 M⁻¹ s⁻¹. In series [3], the Km is on record as 2.56 (0.03) μM, the maximum rate (Vmax) was determined as 0.124 µM/min, the kcat came to 1.18 s⁻¹ and the kcat/Km stood at 462000 M⁻¹ s⁻¹.

B3: LjFNSII-1.1 (Lonicera japonica) (protein)
chain: MWIFDLTISFTTLLFLIFTTALLLLLKVFKKNHKLRPPPSPFTLPIIGHLHLLGPLIHQSFHRLSTLYGPLIQLKIGYIPCVVASTPELAKEFLKTHELAFSSRKHSAAIKLLTYDVSFAFSPYGPYWKFIKKTCTFELLGTRNMNHFLPIRTNEIRRFLQVMLEKAKASEGVNVTEELIKLTNNVISQMMFSTRSSGTEGEAEEMRTLVREVTQIFGEFNVSDFIKLCKNIDIGGFKKRSKDIQKRYDALLEKIISERESERARRGKNRETLGEEGGKDFLDMMLDTMEDGKCEVEITRDHIKALVLDFLTAATDTTAIAVEWTLAELISNPEVFDKAREEIDKVVGKHRLVTELDTPNLPYIHAIIKESFRLHPPIPLLIRKSVQDCTVGGYHISANTILFVNIWAIGRNPKYWESPMKFWPERFLESNGPGPVGSMDIKGHHYELLPFGSGRRGCPGMALAMQELPVVLAAMIQCFNWKPVTLDGEELDMSERPGLTAPRAHDLVCVPSARINSFDNF
On to B3, for which, in series [2], the Km is on record as 9.93 (0.64) μM, the Vmax came out at 0.166 µM/min, the kcat was 1.59 s⁻¹ and the kcat/Km came out at 160000 M⁻¹ s⁻¹. In addition, in series [1] (setting [4]), the Km was 5.07 (0.05) μM, the Vmax came out at 0.267 µM/min, the kcat was found to be 2.56 s⁻¹ and the kcat/Km was found to be 504000 M⁻¹ s⁻¹. For the same protein, in series [3], the Km is listed as 6.48 (0.26) μM, the maximum rate (Vmax) stood at 0.461 µM/min, the kcat was found to be 4.41 s⁻¹ and the catalytic efficiency (kcat/Km) came out at 681000 M⁻¹ s⁻¹.

B4: LmFNSII-1.1 (Lonicera macranthoides; V204M) (protein)
chain: MLIFDLTISFTTLLFLIFTTALLLKVFKKNHKLQPPPSPFTLPIIGHLHLLGPLIHQSFHRLSTLYGPLIQLKIGYIPCVVASTPELAKEFLKTHELAFSSRKHSAAIKLLTYDVSFAFAPYGPYWKFIKKTCTFELLGTRNMNHFLPIRTNEIRRFLQVMLEKAKASEGVNVTEELIKLTNNVISQMMFSTRSSGTEGEAEEMRTLVREVTQIFGEFNVSDFIKLCKNIDIGGFKKRSEDIQKRYDALLEKIISERESERARRGKNRETLGEEGGKDFLDMMLDTMEDGKCEVEITRDHIKALVLDFLTAATDTTAIAVEWTLAELISNPEVFDKAREEIDKVVGKHRLVTELDTPNLPYIHAIIKESFRLHPPIPLVIRKSVQDCTVGGYHISANTILFINIWAIGRNPKYWESPMKFWPERFLESNEPGSVGSTDIKGHHYELLPFGSGRRGCPGMALAMQELPVVLAAMIQCFNWKPVTLDGEELDMSERPGLTAPRAHDLVCVPSARINSFDNF
As to B4, in series [1] (optimized conditions), the Km stood at 8.47 ± 0.52 µM and the catalytic constant (kcat) came to 5.08 ± 0.30 s⁻¹.

B5: LmFNSII-1.1 (Lonicera macranthoides) (protein)
chain: MLIFDLTISFTTLLFLIFTTALLLKVFKKNHKLQPPPSPFTLPIIGHLHLLGPLIHQSFHRLSTLYGPLIQLKIGYIPCVVASTPELAKEFLKTHELAFSSRKHSAAIKLLTYDVSFAFAPYGPYWKFIKKTCTFELLGTRNMNHFLPIRTNEIRRFLQVMLEKAKASEGVNVTEELIKLTNNVISQMMFSTRSSGTEGEAEEVRTLVREVTQIFGEFNVSDFIKLCKNIDIGGFKKRSEDIQKRYDALLEKIISERESERARRGKNRETLGEEGGKDFLDMMLDTMEDGKCEVEITRDHIKALVLDFLTAATDTTAIAVEWTLAELISNPEVFDKAREEIDKVVGKHRLVTELDTPNLPYIHAIIKESFRLHPPIPLVIRKSVQDCTVGGYHISANTILFINIWAIGRNPKYWESPMKFWPERFLESNEPGSVGSTDIKGHHYELLPFGSGRRGCPGMALAMQELPVVLAAMIQCFNWKPVTLDGEELDMSERPGLTAPRAHDLVCVPSARINSFDNF
On to B5, for which, in series [2], the Km is recorded as 1.63 (0.12) μM, the Vmax turned out to be 0.021 µM/min, the kcat was 0.2 s⁻¹ and the kcat/Km was 122000 M⁻¹ s⁻¹. Moreover, in series [1] (setting [4]), the Km is listed as 3.09 (0.17) μM, the Vmax was determined as 0.0462 µM/min, the kcat was found to be 0.44 s⁻¹ and the specificity constant (kcat/Km) came out at 142000 M⁻¹ s⁻¹. In series [3], the Km is 2.38 (0.07) μM, the Vmax was found to be 0.0738 µM/min, the kcat was 0.7 s⁻¹ and the catalytic efficiency (kcat/Km) is 295000 M⁻¹ s⁻¹.
